The target in this assay is Drosophila nitric oxide synthase (DNOS) (Drosophila) (UniProt Q27571). As to the kind of experiment: cell-based or functional assay.

From patent US6890516 come the findings set out here.

Drosophila nitric oxide synthase (DNOS) (Drosophila), sequence (Q27571 other isoform, or with tags, fused parts or gaps limits assumed): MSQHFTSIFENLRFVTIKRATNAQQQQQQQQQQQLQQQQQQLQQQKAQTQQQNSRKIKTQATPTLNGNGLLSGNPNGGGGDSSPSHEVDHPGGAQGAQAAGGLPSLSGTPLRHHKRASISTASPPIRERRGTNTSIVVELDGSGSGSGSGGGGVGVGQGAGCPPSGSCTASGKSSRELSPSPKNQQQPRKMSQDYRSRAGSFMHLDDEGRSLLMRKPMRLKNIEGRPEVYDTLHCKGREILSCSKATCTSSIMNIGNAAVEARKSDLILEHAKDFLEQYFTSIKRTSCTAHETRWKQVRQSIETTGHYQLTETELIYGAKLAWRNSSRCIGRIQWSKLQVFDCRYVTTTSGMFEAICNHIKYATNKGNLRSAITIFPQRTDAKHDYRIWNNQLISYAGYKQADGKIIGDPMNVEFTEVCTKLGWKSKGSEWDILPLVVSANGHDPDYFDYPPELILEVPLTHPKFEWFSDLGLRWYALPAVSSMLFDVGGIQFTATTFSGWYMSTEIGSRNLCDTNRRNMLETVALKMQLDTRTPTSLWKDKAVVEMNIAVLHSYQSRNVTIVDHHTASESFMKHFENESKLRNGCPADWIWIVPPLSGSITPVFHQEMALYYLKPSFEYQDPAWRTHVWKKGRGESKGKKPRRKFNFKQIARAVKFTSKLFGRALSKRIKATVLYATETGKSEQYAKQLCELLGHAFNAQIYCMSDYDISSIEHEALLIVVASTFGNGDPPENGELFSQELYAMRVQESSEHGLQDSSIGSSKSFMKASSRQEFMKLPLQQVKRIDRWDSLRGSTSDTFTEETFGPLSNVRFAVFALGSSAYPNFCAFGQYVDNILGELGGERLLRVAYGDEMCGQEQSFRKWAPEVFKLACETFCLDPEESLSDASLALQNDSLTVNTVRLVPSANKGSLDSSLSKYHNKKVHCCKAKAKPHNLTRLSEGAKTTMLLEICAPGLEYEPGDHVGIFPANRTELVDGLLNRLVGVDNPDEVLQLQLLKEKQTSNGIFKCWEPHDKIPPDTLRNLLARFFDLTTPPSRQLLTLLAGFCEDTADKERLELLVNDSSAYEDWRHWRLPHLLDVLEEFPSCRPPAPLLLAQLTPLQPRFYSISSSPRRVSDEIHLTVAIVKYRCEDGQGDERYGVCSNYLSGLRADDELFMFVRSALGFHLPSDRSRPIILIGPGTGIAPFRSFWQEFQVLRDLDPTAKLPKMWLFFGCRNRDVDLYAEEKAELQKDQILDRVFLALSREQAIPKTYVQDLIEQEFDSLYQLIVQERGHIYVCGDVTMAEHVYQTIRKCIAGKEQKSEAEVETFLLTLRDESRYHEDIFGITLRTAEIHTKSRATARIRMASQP

calmodulin gave an NO synthase activity (L-arginine to L-citrulline conversion, 293 cell extracts, with exogenous Ca2+ and calmodulin) of 0.128 pmol/mg/min; an NO synthase activity with 500 µM W5, a calmodulin antagonist of 0.0222 pmol/mg/min; an NO synthase activity with 500 µM W5, a calmodulin antagonist (% of activity) of 18; an NO synthase activity with 1 mM EGTA, without exogenous Ca2+ or calmodulin of 90 % reduction.
